Laboratory results as given in the nanobody polyreactivity screen of Harvey et al. (2022).

Experiment: yeast display, Sf9 membrane polyspecificity reagent, FACS + sequencing; frameworks hold sequencing errors
Method in brief: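 Synthetic nanobody libraries on Saccharomyces cerevisiae BJ5465 were galactose-induced for 36–48 hours, stained 1 hour at 4 °C with 10% biotinylated, detergent-solubilized Sf9 membrane reagent and enriched on streptavidin microbeads. FACS then separated cells into low and high (top ~1%) gates by anti-HA (expression) and streptavidin (reagent binding) fluorescence. Genes were colony-PCR amplified, MiSeq 2 × 250 sequenced and CDR-length filtered. A clone's polyreactivity label is that of its gate of origin.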

Sequence | polyreactivity (PSR sort gate)
QVQLVESGGGLVQAGGSLRLSCAASGRTFISNAMGWYRQAPGKERELVATISRRGGITYYADSVKGRFTISRDNSKNTVYLQMNSLKPEDTAVFYCNARNYPQGIYYWGQGTQVTLSS | high polyreactivity
QVQLVESGGGLVQAGGSLRLSCAASGRTFLVNAMGWSRQAPGKERELVAAISQRGGSTDYADSVKGRFTISRDNAKNTVYLQMNSLKPEDTAVYYCAVRWGYLYDYWGQGTQVTVSS | low polyreactivity
QVQLVESGGGLVQAGGSLRLSCAASGGTFVPYAMGWYRQAPGKERELVAAITIGGSTSYADSVKGRFTISRDNAKNTVYLQMNSLKPEDTAVYYCNARSYPDYIYWSQRYDYDYWGQGTQVTVSS | low polyreactivity
QVQLVESGGGLVQAGGSLRLSCAASGNILEYNAMGWYRQAPGKERELVAAISRGGITNYADSVKGRFTISRDNAKNTVYLQMNSLKPEDTAVYYCATRWIGYTSQWDHFEYDYWGQGTQVTVSS | low polyreactivity
QVQLVESGGGLVQAGGSLRLSCAASGFTFTPYAMGWYRQAPGKERELVAAITWRGGTYYADSVKGRFTISRDNAKNTVYLQMNSLKPEDTAVYYCAARVWRLYPSTYDYWGQGTQVTVSS | high polyreactivity
QVQLVESGGGLVQAGGSLRLSCAASGGNFAEYVMGWYRQAPGKERELVAAIDWSGGSTYYADSVKGRFTISRDNAKNTVYLQMNSLKPEDTAVYYCNADGPLDRYEYWGQGTQVTVSS | low polyreactivity
QVQLVESGAGLVQAGGSLRLSCASSGRTCDFYAMGWYRQAPGKERELVAAISSSCGSTYYADSVKGRFTISRDNAKNTVYLQMNSLKPEDTAVYYCAKDGRVHSPYDYWGQGTQVTVSS | low polyreactivity
QVQLVESGGGLVQAGGSLRLSCAASGRIFRDYDMGWYRKAPGKEWELVAAITYRGGSTYYADSVKGRFTISRDNAKNTVYLQINSLKPEDTAVYYCAAGSRSPHWYTRELDYWVQGTQVTVSS | low polyreactivity
QVQLLESGGGLVHSGGSLRLSCASSGRIFPSNTMGSYRPAPGKERELVADISFGGGSTSYADSVKGRFTISRDNAKNTVYLQMNRLKPEDTAVYYCNADRDDDYDYWGQGTQVTLSS | low polyreactivity
QVQLVESGGGLVQAGGSLRLSCAASGITLHHNAMGWYRQAPGKERELVAAITSNGGSTYYADSVKGRFTISRDNAKNTVYLQMNSLKPEDTAVYYCARDSKRLARYYYWGQGTQVTVSS | low polyreactivity
QVQLVESGGGLVQAGGSLRLSCAASGITFAYYAKGWYRQAPGKEREFVAAINGGGSTNYADSVKGRFSISRDNAKNTVYLQMNSLKAEDTAVYFCNARRAYRAWYYPYDYWGQGTQVTVSS | high polyreactivity
QVQLVESGGGLVQEGGSLRLSCAASGSTFVHYDMGWYRQAPGKERELVAGITDTDNHELRRLCEGRFTISRDKAKNTVYLQMNSLKPEDTAVYYCNADDTYYPLGGITGYDYWGQGTQVTVSS | low polyreactivity
QDQLVESGGGLVQAGGSLRLSCAASGSIFWSNAMGWYRQAPGKERELVASISSSGSTYYADSVKGRFTISRDNAKNTVYLQMNSLKPEDTGVYYCAAGSAYYSQRYFAYGYDSWGQGTQVTVSS | low polyreactivity
QVKLVESGAGVVQAGGSLRLSCAACGRIFLKYAMGWYRQAPGKERELVAAITSGGGRTSYADSVKGRFTISRDNAKNTVYLQMNSLKPEDTAVYYCNAPAYWRYILRGSAYDYWGQGTQVTVSS | high polyreactivity
QVQLVESGGGLVQAGGSLRLSCAASGRIFNLYDMGWYRQAPGKERELVAAIRIGDRTYYADSVKGRFTISRDNEKNTVYLQMNSLKQEDTAVYYCNREYLSNRDKRFFYWGQGTQVTVSS | low polyreactivity
QVQLVDSGGGLVQAGGSLRLSCAASGSIFSAYAMGWYRQAPGKERELVAAITFGGSTYYADSVKGRFTISRDNAKNTVYLQMNSLKPEDTAVYYCNAYYPFVGLYLGHDYWGQGTQVTVSS | low polyreactivity
QFQLVESGGGFVQAGGSLRLSCAASGSIFLYNDMGWYRQAPGKDRELLPAITSDGSTNYADSVKGRFTISRDNAKNTVYLQMNSLKPEDTAVYYCAADALWFYLNWYYGGTAYGYWGQGTQVTVSS | low polyreactivity
QVQLVESGGGLVQAGGSLRLSCAASGRTFTYYAIGWYRQAPGKERELVADINRSGGDTYYADSVKGRFTISRDNAKNTVYLQMNSLKPEDTAVYYSAADDWGAQHRYDYWGQGTQVTVSS | low polyreactivity
QVQLVESGGGLVQAGGSLRLSCAASGYTFKTNDMGWYRPAPGKEREFVAAISAIGGSTYYADSVKGRFTISRDNAKNTVYLQMNSLKPEDTAVYYCAKDKSPYGYATNQYRKYYYWGQGTQVTVSS | low polyreactivity
QVQLVESGGGLVQAGGSLRLSCAASGRIFRRNTMGWYRQAPGKERELVAAITSSGGSTYADSVKGRFTISRDNAKNTVYLQMNSLKPEDTAVYYCAAVRLYRYDYWGQGTQVTVSS | low polyreactivity

Sequence | polyreactivity (PSR sort gate)
QVQLVESGGGLVQAGGSLRLICAASGRTFENYAMGWYRQAPGKERELVAAISKSGGSTYYADSVKGRFTISRDNAKNPVYLQMNSLKPEDTAVYYCNARPGQSGARFGYWGQGTQVTVSS | high polyreactivity
QVQLVESGGGLVQARGTLRLSCAASGFTVFSYAMGWYRQAPGKESELVASISGSSSTYYADSVKGRFTISRDNAKNTVSVQMNSLTPDDTAVYYCAVDYHQAWPSGDYWFEYDYWGQGTQVTVSS | low polyreactivity
QVQLVESGGGLVQEGGSLRLSCGASGSIFSCYAMGWYRQAPGKERELVAGITWSGGSTYYADSVKGRFTNSRDNAKNTVYLQMNSLKPEDTSVYYCAAKYYWYYSDSGIPLFDYWGQGTQVTVSS | low polyreactivity
QVQLVESGGGLVQAGGSLRLSCAASGNIFPYYAMGWYRQAPGKERELVASITWSGGRTYYADSVKGRFTISRDNAKNTVYLQMNSLKPEDTAVYYCARRRVYRWYTGDYWGQGTQVTVSS | low polyreactivity
QVQLVESGGGLVQAGGSLRLSCAASGSTFRVYGMGWSRQAPGKERELVAVIRWRGGRTSYADSVKGRFTISRDYAKNTVYLQLNSLKPEDTAVYYCARQRSYGRSSYSYGYDYWGQGTQVTVSS | high polyreactivity
QVQLVESGGGLVQAGGSLRLSCAASGITFYYYAMGWYRQAPGKERELVAAISDNGSRTYYADSVKGRFTISRDNAKNTVYFQMNSLKPEDTAVYYCAADWFYTNVRYRYAYGGYYWGQGTQVTVSS | high polyreactivity
QVQLQESGGGLVQAGGSLCMSCAASGSISDYIFMCWYRQAPGKVREFVAGIGIGGKTNYADSVKGRFTIRRDNEKYTVYLQMNSLKPEDTALYYCAANATYTDYYAYCGQGTQVTVSS | low polyreactivity
QLQLVESGGGLVQAGGSLRFSCAASGYISRRYAMVWSIQAPGKERELVAAITGGGGSTYYADSVKGRFTISRDNAKNTVYLQMNSLKPEFTAVYYCNAYWGRSGYAGGYWGQGTQVTVSS | high polyreactivity
QVQLVESGGGLVQAGGSLRLSCAASGRTFVTYAMGWYRQAPGKEREFVAAITWSTGTSTYYADSVKGRFTISRDNAKNTVYLQMNSLKPEDTAVYYCAVDIWWPTWYYIYWGQGTQVTVSS | low polyreactivity
QVQLVESGGGLVQAGGSLRLSCAASGRIIFIYAMGWYRQPPGKERELVAGINRTGGSTYYADSVKGRFTISRDNAKNTVYLQMNSLKPEDTAVYYCAAVSYYASDYRYDYWGQGTQVTVSS | low polyreactivity
QVQLVESGGGLVQAGGSLRLSCAASGFTFYYYAMGWYRQAPGKERELVAGITGSGGRTYYADSVKGRFTISRDNAKNTVYLQMNSLKPEDTAVYYCNARSLWYDYWGQGTQVTVSS | high polyreactivity
QFQLVESGGGLVQAGGILRLSCADSGSTFRWYAMGWYRKAPGKERELVASITYSGASTYYADSVKGRFTISRDNAKNTVYLQMISLKPEDTAVYYCNAVFWFSYVSEYDYWGQGTQVTVSS | high polyreactivity
QVQLVESGGGLVQAGGSLRLSCAASGITFYVYAMGGSRQAPGKERELVAAMTRSGGITSYADSVKGRFTISRDNAKNTGYLQMNSLKPEDTAVYYCAAERTNQHYHIQGVGYWGQGTQVTVSS | low polyreactivity
QVQLVESGVGLVQAGGSLRLSCASSGSIFAYNTMGWYRQAPGKEREFVAAISWLGGSTYYADSVKGRFTISRDNAKNTVYLQMNSLKPEDTAVYYCNARYRTTFYTRRYDYWGQGTQVTVSS | low polyreactivity
QVQLVESGGGLVQAGGSLRLICAASGLTFYVYAMGWYRQAPGKERELVAAISQRGGSTYYADSVKGRFKISRDNAKNTVYLQMNSLNPEDTAVYYCAKYTVQYAISHYDYWGQGTQVTVSS | high polyreactivity
QVQLVESGGGLVQAGGSLRLSCAASGRTFQLYAMGWYRQAPGKERDLVAAISARGGSTYYADSVKGRFTISRDNAKNTVYLQMNSLKPEDTAVYYCNADYNVVLSRVIYARGYWGQGTQVTVSS | high polyreactivity
QVQLVESGGGLVQAGGSLRLSCAASGRTFVWNAIGWYRQAPGKERELVDAITSGGSTNYADSVKGRFTISRDNAKNTVYLQMNSLKPEDTAVYYCAADWHYSPRMDYWGQGTLVTVSS | low polyreactivity
QVQLVESGGGLVQAGGSLRLSCAASGRIFPTNAMGWYRQAPGKERELVASITRSGSTYYADSVKGRFTISRDNAKNTVYLQMNSLKPEDTAVYYCAAYAYIFLDWGGYPYYLYEYDYWGQGTQVTVSS | low polyreactivity
QVQLVESGGGLVQAGGSLRLSCAASGRTFTGYAMGWYRKAPGKERELVAAIRRTASTYYADSVKGRFTISRDNAKNTVYLQMNSLKPEDTAVYYCAVRAAHRGTYYYWGQGTQVTVSS | high polyreactivity
QVQLVESGGGLVQAGGSLRLSCAASGSTFRYYAMGWYRQAPGKERELVAAITTSGSRTYYADSVKGRFTISRDNAKNTVYLQMNSLKPEDTAVYYCAKDGWRYSQSLDWYRFGYWGQGTQVTVSS | high polyreactivity
